Data on one molecule can be found in PMC7486707 (Proceedings of the National Academy of Sciences of the …, 2020).

This experiment addresses T1, STM-His6 (SHOOT …) (Arabidopsis thaliana, UniProt Q38874 1-382).
T1 sequence (looked up): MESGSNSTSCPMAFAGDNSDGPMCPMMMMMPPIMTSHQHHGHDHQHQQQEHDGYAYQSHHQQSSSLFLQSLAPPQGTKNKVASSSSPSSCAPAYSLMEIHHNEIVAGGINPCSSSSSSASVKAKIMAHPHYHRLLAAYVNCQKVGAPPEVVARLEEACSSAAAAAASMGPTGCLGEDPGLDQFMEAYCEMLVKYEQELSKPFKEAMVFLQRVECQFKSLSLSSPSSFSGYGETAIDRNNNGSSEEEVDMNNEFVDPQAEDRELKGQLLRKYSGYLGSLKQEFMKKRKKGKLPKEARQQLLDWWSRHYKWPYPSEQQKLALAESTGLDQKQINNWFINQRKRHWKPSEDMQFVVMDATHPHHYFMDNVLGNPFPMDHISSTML
Kind of experiment: pull-down.

B1: GST-WUS (WUSCHEL) (natural protein, Arabidopsis thaliana, UniProt Q9SB92 1-292, looked up)
chain: MEPPQHQHHHHQADQESGNNNNNKSGSGGYTCRQTSTRWTPTTEQIKILKELYYNNAIRSPTADQIQKITARLRQFGKIEGKNVFYWFQNHKARERQKKRFNGTNMTTPSSSPNSVMMAANDHYHPLLHHHHGVPMQRPANSVNVKLNQDHHLYHHNKPYPSFNNGNLNHASSGTECGVVNASNGYMSSHVYGSMEQDCSMNYNNVGGGWANMDHHYSSAPYNFFDRAKPLFGLEGHQEEEECGGDAYLEHRRTLPLFPMHGEDHINGGSGAIWKYGQSEVRPCASLELRLN
As for B1, the binding result was “binds”.
